Consider 21 sequences from the DeepSol protein solubility set.

The nature of the data set: soluble on expression in E. coli; label from the status in PepcDB or PDB records.
For “LHPFFRSFALRASAHPVLSADFESAFAAARHAAPATAAAVQTAERLPEWNLTDLYPAMDSPELKADLDKADVACKAFETAFKGKLAALLALPDGGAALGAAVKSYEEVDDLLGRIASYGSLIYAGDTSDPARAKFYGDIQERLTDASTHLLFFTLEMNRLDDAALEAAMADPALGYYRPWVEDLRKDKPYQLDDKIEQLFHEKSNPSRGAWSRLFDETISSLRFTVDGQDLAIEPTLNLMQDPREEVRKSAGLALADTFGKNLRLFTLITNTLAKDKEISDRWRGFEDVASSRHLANRVEKEVVDAMVEAIRVSFPRLSHRYYALKARWFGKDRLEFWDRNAPLPKVETRDIGWGEAKDTVLSAYGAFSPKMADIAKTFFEKSWIDAPVRPGKSPGAFAHPTVPSAHPYVLLNYQGKPRDVMTLAHELGHGVHQVLAARQGALMAPTPLTLAETASVFGEMLTFRRLLDGAETPRARKIMLAQKVEDMINTVVRQTAFYTFERDVHIERRQGELTSEKIGEIWMKVQGESLGPAIHLGAGYETFWTYIPHFIHSPFYVYAYAFGDCLVNSLYAVYENAADGFADRYLEMLSAGGTKHHAELLAPFGLDARDPAFWQTGLSLIDRMISELESMEG”, the “soluble on expression in E. coli” value is on record as “soluble”.

Consider “LHRYSEVLGLPVICTADGKNLGTIKDIIFCPKEKSVVAFLIECKGYNRRKKVVFASDVLSLGRDALIVNDADDVRDLKKVLHRPEFKDKGDILGLPIYTKNGEDLGTAKDVLFDLKHGKIDGIEVSDGLLQDIVKGRSVLPLIGKVEFGEENILVDNEAVEEMMETGGGIKNLIEGNKKVQRKG”, for which the “soluble on expression in E. coli” value is “not soluble”.

On to “LIPILGLGNYTAQVDIELDFSAVEQTRKVFDPNTPATRSEYTLEDYNNGNVVAGVPGALSNQPPADASIPQDVAQMKDGSVMGQGSVHKEATRNYELDTTISHERKQSGVINRQTVAVAVKSRSSVNPDTGEVTYTPLSEADLNSIRQVLIGTVGYSENRGDLLNVLSMPF”, for which the “soluble on expression in E. coli” value is recorded as “not soluble”.

For the sequence “LKDFSFDLNVNLAKNVSNVEKLADGVDYIYFNGDSNFPINVGARPGHKLGEIYAKTLYKRDEQGNIIINKENGLPMTTTDADERLAKPIGNIQPNLLMSVSPSFTYKGITLSAIFDMKFGGDIISISEMNATGSGMAKRTMNRGESDNFMMIFPGVYEDGTPNTQKISASNYYGAQNAEDFIYDASFIKLKELAIGYTFPKSMLKKTPINSLNVSFVARNLAYLLKHTPGTSPEGGYDTTMFSQAIDFMAVPYTRTFGFSVNLGF”, the “soluble on expression in E. coli” value is listed as “not soluble”.

Regarding “LLEKHGVVVRSSNYELYADLSERMMNVIGRFCDNQYIYSIDESFLYFDHYESCINDWHEYGHKIRKAIWKETRLPVGVGFGETATLSKAANHAAKKLSGFN”, the “soluble on expression in E. coli” value is “not soluble”.

In the case of “LLKEYKNAWDKYDDKQLKEVFALGDRFKNFISNCKTERECVTELIKTAEKSGYRNIEDILAKGETLKEGDKVYANNRGKGLIMFLIGKEPLYTGFKILGAHIDSPRLDLKQNPLYEDTDLAMLETHYYGGIKKYQWVTLPLAIHGVIVKKDGTIVNVCVGEDDNDPVFGVSDILVHLASEQLEKKASKVIEGEDLNILIGSIPLKDGEEKQKVKHNIMKILNEKYDISEEDFVSAELEIVPAGKARDYGFDRSMVMGYGQDDRICAYTSFEAMLEMKNAKKTCITILVDKEEVGSIGATGMQSKFFENTVADIMSLCGDYDELKLRKALYNSEMLSSDVSAAFDPNYPNVMEKRNSAYLGKGIVFNKYTGSRGKSGCNDANPEYIAELRRILSKESVNWQTAELGKVDQGGGGTIAYILAEYGMQVIDCGVALLNMHAPWEISSKADIYETKNGYSAFLNN”, the “soluble on expression in E. coli” value is reported as “soluble”.

Consider “LNDFAVRVAKSFSKVSEEKKSGSDIQGVFGIGSLENALYTASFAAGGGDYNNFLFNIKKGRADFSNFFNHNSKTFQSLRDIFNSFKPLIDQKGLISNKHFDTPVNNYAKFHQLAFYVSSTARFPYSFAKDNVKRLIIGKRELEVNPKSMFAIKKENGNNGNSNLLGKVALDNNKSIELYENNIPNGKTDAILIKN”, for which the “soluble on expression in E. coli” value is “soluble”.

For “LPLCFADASGTLRYVNDRFTRLFGYAPEDIPTQEEWWSRVCTDGRCRGETADAWQASVQRGPNGASDIEPAEFRVACKNGDIRLVEVSGITIEGTVLATFIDI”, the “soluble on expression in E. coli” value is “not soluble”.

Turning to “LQSKLSLPKIPNVIECFDISHLSGTATVGSMVQFRGGRPDKHNYRRFKIESVEGIDDFASIAEVVRRRYSRLLEDKHEMPDLIIIDGGKGQLSSAFQELRKLRVKVPIISIAKREEEIYVPGLKSPLPIKKDEKASLFVQEIRDEAHRFAINYNRLLRQKALIQK”, the “soluble on expression in E. coli” value was “not soluble”.

On to “LRIEPVHDVEHSATVRDLEHIVAESRDAGELPRELSTLLGRILDFPTRTAGHAMIPRAHVDTVRAHDSLSSVLEKMGAGHTRYPVVGSSSDDLRGVIHLHDLLGEQSDGPAASRARPAVVVPSSLPLPDVLEQLTAARDEMALVVDEYGGFAGVITIEDLAEELVGEIA”, for which the “soluble on expression in E. coli” value was “not soluble”.

Consider “LRLCQVDRCTADMKEAKLYHRRHKVCEVHAKASSVFLSGLNQRFCQQCSRFHDLQEFDEAKRSCRRRLAGHNERRRKSSGE”, for which the “soluble on expression in E. coli” value was “soluble”.

As to “LRPVLPTQSAHDPPAVHLSNGPGQEPIAVMTFDLTKITKTSSSFEVRTWDPEGVIFYGDTNPKDDWFMLGLRDGRPEIQLHNHWAQLTVGAGPRLDDGRWHQVEVKMEGDSVLLEVDGEEVLRLRQVSGPLTSKRHPIMRIALGGLLFPASNLRLPLVPALDGCLRRDSWLDKQAEISASAPTSLRSCDVESNPGIFLPPGTQAE”, the “soluble on expression in E. coli” value is given as “soluble”.

Turning to “LRSAARTLYTWTLPNEYELIDVREPHEIEHTPSGAHITLPQSMWNDTTAIQHALDNITTDNVVVVCASGIRSAAFIEQFAHLNPHLTFHNVPSGINELP”, the “soluble on expression in E. coli” value is reported as “not soluble”.

Consider “LSCLTPDNKPGKCVNIKKCTHLAEIEEDPIGEDETTYLKNSVCAGPEDNSVCCG”, for which the “soluble on expression in E. coli” value is on record as “soluble”.

Regarding “LSKPKLAVVGARKCSETGKQSVRKIVHELGNAFTIVSGLARGIDTCAHMEALKNKGNTIAVIGTGLDVYYPKENKALQDYMAKNHLVLTEYGPGEQPLKYHYPERNRIISGLCQGVMVVEAKLRSGSLITCERAMEEGRDVFAIPGNILDGKSDGCHHLIQEGAKCITTGFDIISEFS”, the “soluble on expression in E. coli” value is given as “not soluble”.

In the case of “LSLTQLSSGNPVYEKYYRQVEAGNTGRVLALDAAAFLKKSGLPDLILGKIWDLADTDGKGVLSKQEFFVALRLVACAQNGLEVSLSSLSLAVPPPRFHD”, the “soluble on expression in E. coli” value is on record as “soluble”.

Regarding “LSNFQGKVMMTVNATDVTDVITIPTAAGKNLCIVRAMDVGYMCDDTITYECPVLSAGNDPEDIDCWCTKSAVYVRYGRCT”, the “soluble on expression in E. coli” value is given as “soluble”.

For “LSPLEARVIGCLIEKEVTTPDHYPLTLNSLTTACNQKSNREPVLNLSEAEVQDTVEGLIARRLVSDESSFNSRTSKYQHRFCNTEFGDLKLNQQELGLICCLLLRGAQTPGELRTRTNRLCTFTDVKETEAVLERLANRDSGALVVKLPREPGKRESRYHHLFCGEVDMAAFATSSDNE”, the “soluble on expression in E. coli” value is “not soluble”.

For the sequence “LSSPADSYNEGVKLQPQEISPPPTANLDRSNDKVYENVTGLVKAVIEMSSKIQPAPPEEYVPMVKEVGLALRTLLATVDETIPLLPASTHREIEMAQKLLNSDLGELINKMKLAQQYVMTSLQQEYKKQMLTAAHALAVDAKNLLDVIDQARLKMLGQTRPH”, the “soluble on expression in E. coli” value is “soluble”.

In the case of “LTAGKVDIPTPDGKMPAYRAAPAGKKDLPTLLVVSEIFGVHEYIQDVCRRLARLGYQAVAPELFARYGDPTGYTDIGRLRAEVVDKAGDRQVLADLDAAAAWAAANGGNSSRLGILGFCWGGRIVWLYAAHNPGLKAGAAWYGQLGGQASELKPRSVLESIGDLKAPVLGAYGGKDAGIPLSDVDRMRLALAKGPRAARDSRIDVYPEAPHAFHADYRPSYRKAEAEQAWQRMLDWFGQH”, the “soluble on expression in E. coli” value is “not soluble”.

Take “LVIVTDPHQRIEWVNAAFEQQTGHSGPSVRGQPLCAVLQGEPAPGGCGDRLRAMLAEGRTARAEVEATAACGRRFWLDVSLQPLLDDEGALDGYMAVASDIT”: the “soluble on expression in E. coli” value was “not soluble”.
